Legend:
Test in all cases: AUC; sedimentation velocity, 0.25 mg/mL (14.7 µM) protein with 7-fold molar excess of TbCl3, 20 °C, 50,000 rpm, c(s) analysis
[1] = molecular target: gC1q domain of human otolin-1 (hOtolC1q), wild type (human)
[2] = molecular target: gC1q domain of human otolin-1, natural variant Q426R (human)
[3] = molecular target: gC1q domain of human otolin-1, natural variant R339S (human)

gC1q domain of human otolin-1 (hOtolC1q), wild type (domain or fragment)
stoichiometry N [1]: 3

gC1q domain of human otolin-1, natural variant Q426R (domain or fragment)
stoichiometry N [2]: 3

gC1q domain of human otolin-1, natural variant R339S (domain or fragment)
stoichiometry N [3]: 3

Reference: publication PMC8396674
